Measurements as given in patent US20070178531A1 (BIOCHECK, published 2007).
Changes are numbered by the printed parent chain.

Legend:
[1] = target: T1, glutathione S-transferase (GST) (UniProt P08515 1-218 = GST); test: ELISA, Ab 0.010 µg/ml
T1 construct: also called carrier protein GST

Human Id1: Histidine = target: T2, Human Id1: Histidine (human, UniProt P41134 1-155, limits assumed); test: ELISA, Ab 0.500 µg/ml
T2 construct: Fusion protein made in E. coli from vector pGW07; also called h-Id1: his; not shown: His tag
T2 sequence (looked up): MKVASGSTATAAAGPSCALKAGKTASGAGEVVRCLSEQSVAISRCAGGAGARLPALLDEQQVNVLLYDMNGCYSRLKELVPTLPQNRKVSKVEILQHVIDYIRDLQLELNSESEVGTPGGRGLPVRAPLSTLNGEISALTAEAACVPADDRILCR
Procedure: (§1) The rabbit monoclonal anti-human Id3 (clone #3-3) and the rabbit monoclonal anti-mouse/human Id3 (clones #6-1, 16-1, 17-3, and 42-1) produced in Example 6 were tested reactivity against the following antigens: mouse Id1:His, human Id1:His, mouse Id2:His, human Id2:His, mouse Id3:His, human Id3:His, mouse Id4:His, human Id4:His and GST.
(§2) 1. Microtiter wells (prepared in accordance with Example 6) were coated (0.1 μg/well) with mouse Id1:His, human Id1:His, human Id2:His, human Id3:His, and 1.0 μg/well with GST. [0155] 2. Antibody Diluent: 0.25% (w/v) BSA in 0.015M KPO₄ Buffer, 0.85% (w/v) NaCl, 0.1% (w/v) NaN₃, pH=7.40 [0156] 3. Rabbit monoclonal anti-human Id3 (clone #3-3) prepared in Example 7 was diluted to […] with the antibody diluent. […] 4. Rabbit monoclonal anti-mouse/human Id3 (clones #6-1, 16-1, 17-3, 42-1) prepared in Example 7 was diluted to 0.005, 0.010, 0.025, 0.05, 0.10, 0.25, and 0.50 μg/ml with the antibody diluent. […] 5. Conjugate Diluent: 50% (v/v) which consists of an aqueous solution containing Fetal Bovine Serum in 0.05 M Tris, 1% (v/v) Proclin-300, pH 7.6. [0159] 6. Conjugate: Goat anti-rabbit IgG (H+L)-HRP conjugate. [0160] 7. TMB reagent. […] 8. Stop solution (1 N HCI). Method
(§3) 1. Dispense 100 μL of antibody diluent, diluted rabbit monoclonal human Id3, and mouse/human Id3 hybridoma supernatants into appropriate wells. […] 2. Incubate at room temperature with mechanical shaking at 750 rpm for 90 minutes. [0165] 3. Remove the incubation mixture by flicking plate content into an appropriate waste container followed by rinsing the wells 5 times with distilled water. [0166] 4. Strike the wells sharply onto absorbent paper or paper towels to remove all residual water droplets. [0167] 5. Dispense 100 μL of 1:50,000 Goat Anti-Rabbit IgG-HRP Conjugate Reagent into each well. Gently mix for 5 seconds. [0168] 6. Incubate at room temperature with mechanical shaking at 750 rpm for 90 minutes. [0169] 7. Repeat procedures 3 and 4. [0170] 8. Dispense 100 μL of TMB Reagent into each well. Gently mix for 5 seconds. [0171] 9. Incubate at room temperature with mechanical shaking at 750 rpm for 20 minutes. […] 10.

Mouse Id1: Histidine = target: T3, Mouse Id1: Histidine (mouse, UniProt P20067-2 1-148, limits assumed); test: ELISA, Ab 0.500 µg/ml
T3 construct: Fusion protein made in E. coli from vector pGW07; also called m-Id1-His; not shown: His tag
T3 sequence (looked up): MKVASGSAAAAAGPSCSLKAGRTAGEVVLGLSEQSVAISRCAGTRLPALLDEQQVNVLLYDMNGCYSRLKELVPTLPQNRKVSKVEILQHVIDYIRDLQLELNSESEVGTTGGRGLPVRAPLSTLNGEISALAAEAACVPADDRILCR
Procedure: as §1, §2, §3

Human Id2: Histidine [2] = target: T4, Human Id2: Histidine (human, UniProt Q02363 1-134, limits assumed); test: ELISA, Ab 0.500 µg/ml
T4 construct: Fusion protein made in E. coli from vector pGW07; also called h-Id2: His; not shown: His tag
T4 sequence (looked up): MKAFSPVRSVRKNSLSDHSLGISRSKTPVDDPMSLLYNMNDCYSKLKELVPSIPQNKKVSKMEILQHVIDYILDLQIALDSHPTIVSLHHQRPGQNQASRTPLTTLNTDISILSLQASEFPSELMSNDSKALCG
Procedure: as §1, §2, §3

Mouse Id3: Histidine [3] = target: T5, Mouse Id3: Histidine (mouse, UniProt P41133 1-119); test: ELISA, Ab 0.500 µg/ml
T5 construct: Fusion protein made in E. coli from vector pGW07; also called m-Id3: His; Mouse Id3 (coated wells); not shown: His tag
T5 sequence: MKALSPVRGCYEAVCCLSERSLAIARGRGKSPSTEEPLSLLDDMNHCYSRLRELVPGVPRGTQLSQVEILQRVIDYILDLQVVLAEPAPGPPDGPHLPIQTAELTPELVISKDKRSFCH
Procedure: as §1, §2, §3

Human Id3: Histidine = target: T6, Human Id3: Histidine (human, UniProt Q02535 1-119 at identity 1.00)); test: ELISA, Ab 0.500 µg/ml
T6 construct: Fusion protein made in E. coli from vector pGW07; also called h-Id3: His; Human Id3 (coated wells); not shown: His tag
T6 chain: T5 sequence with S31G, S33A, T34A, T105A, K112N
Procedure: as §1, §2, §3

[4] = target: T1, glutathione S-transferase (GST); test: ELISA, Ab 0.005 µg/ml
Human Id2: Histidine [5] = target: T4, Human Id2: Histidine; test: ELISA, Ab 0.000 µg/ml (blank)
Procedure: as §1, §2, §3

Mouse Id3: Histidine [6] = target: T5, Mouse Id3: Histidine; test: ELISA, Ab 0.000 µg/ml (blank)
Procedure: as §1, §2, §3

Mouse Id2: Histidine [7] = target: T7, Mouse Id2: Histidine (mouse, UniProt P41136 1-134, limits assumed); test: ELISA, Ab 0.000 µg/ml (blank)
T7 construct: Fusion protein made in E. coli from vector pGW07; also called m-Id2: His; not shown: His tag
T7 sequence (looked up): T4 sequence (looked up) with S60T, A131V
Procedure: as §1, §2, §3

Mouse Id2: Histidine [8] = target: T7, Mouse Id2: Histidine; test: ELISA, Ab 0.100 µg/ml

T1 sequence (P08515 whole entry): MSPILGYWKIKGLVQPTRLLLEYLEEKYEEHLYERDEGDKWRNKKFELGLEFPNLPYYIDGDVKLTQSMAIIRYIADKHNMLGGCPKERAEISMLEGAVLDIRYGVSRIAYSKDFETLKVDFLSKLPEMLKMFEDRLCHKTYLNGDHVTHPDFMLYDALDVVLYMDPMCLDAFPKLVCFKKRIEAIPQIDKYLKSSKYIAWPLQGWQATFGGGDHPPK

B1: rabbit monoclonal anti-mouse/human Id3, clone #BCH-4/#16-1 (antibody, V domains shown)
VH: QSVEESGGRLVTPGTPLTLTCTASGFSLSSYYIHWVRQAPGKALEWIGYISDGGTTYYASWAKGRFTISKTSSTTVDLKMTSLTTEDTATYFCARQGFNIWGPGTLVTVSL
VL: AVLTQTPSPVSAAVGGTVTISCQSSQSVYNNNWLSWFQQKSGQPPKLLIYETSKLESGVPSRFKGSGSGTQFTLTIIDVQCDDAATYYCLGGYWTTSDNNIFGGGTEVVVK
notes: Rabbit IgG from a rabbit hybridoma; also called m/h Id3 MoAb 16-1
How did the A450 [1] turn out when B1 was run?
The A450 was 0.046 A450.

And the A450 (Human Id1: Histidine)?
Its A450 is 0.051 A450.

And the A450 (Mouse Id1: Histidine)?
Its A450 is 0.047 A450.

What about the A450 (Human Id2: Histidine [2]) of the same binder?
The A450 was 0.058 A450.

What about the A450 (Mouse Id3: Histidine [3]) of the same binder?
The A450 was 3.61 A450.

And the A450 (Human Id3: Histidine)?
The A450 was 3.37 A450.

What about the A450 [4] of the same binder?
The A450 was 0.048 A450.

What about the A450 (Human Id2: Histidine [5]) of the same binder?
Its A450 is 0.049 A450.

What about the A450 (Mouse Id3: Histidine [6]) of the same binder?
The A450 was 0.044 A450.

And the A450 (Mouse Id2: Histidine [7])?
Its A450 is 0.046 A450.

What about the A450 (Mouse Id2: Histidine [8]) of the same binder?
The A450 was 0.055 A450.

B2: rabbit monoclonal anti-mouse/human Id3, clone #BCH-4/#6-1 (antibody, V domains shown)
VH: B1 VH with S30N, Y31V, A43G, G54D, T56A, Y57R, S60T, D77N
VL: B1 VL with T19S, Y29W, S41P, I77S, I101V
notes: Rabbit IgG from a rabbit hybridoma; also called m/h Id3 MoAb 6-1
Which A450 [1] does the source give for B2 here?
The A450 was 0.046 A450.

And the A450 (Human Id1: Histidine)?
Its A450 is 0.048 A450.

What about the A450 (Mouse Id1: Histidine) of the same binder?
Its A450 is 0.051 A450.

And the A450 (Human Id2: Histidine [2])?
The A450 was 0.063 A450.

What about the A450 (Mouse Id3: Histidine [3]) of the same binder?
The A450 was 3.81 A450.

And the A450 (Human Id3: Histidine)?
Its A450 is 3.56 A450.

And the A450 [4]?
The A450 was 0.046 A450.

And the A450 (Human Id2: Histidine [5])?
The A450 was 0.045 A450.

And the A450 (Mouse Id3: Histidine [6])?
The A450 was 0.047 A450.

And the A450 (Mouse Id2: Histidine [7])?
The A450 was 0.044 A450.

What about the A450 (Mouse Id2: Histidine [8]) of the same binder?
The A450 was 0.055 A450.

B3: rabbit monoclonal anti-mouse/human Id3, clone #BCH-4/#17-3 (antibody, V domains shown)
VH: B1 VH with S30N, Y31V, A43G, G54D, T56A, Y57R, S60T, D77N
VL: B1 VL with T19S, Y29W, S41P, I77S, I101V
notes: Rabbit IgG from a rabbit hybridoma; also called m/h Id3 MoAb 17-3; BCH-3/#17-3
Which results are given for B3?
A450 [1]: 0.046 A450; A450 (Human Id1: Histidine): 0.049 A450; A450 (Mouse Id1: Histidine): 0.06 A450; A450 (Human Id2: Histidine [2]): 0.053 A450; A450 (Mouse Id3: Histidine [3]): 3.74 A450; A450 (Human Id3: Histidine): 3.69 A450; A450 [4]: 0.048 A450; A450 (Human Id2: Histidine [5]): 0.043 A450; A450 (Mouse Id3: Histidine [6]): 0.047 A450; A450 (Mouse Id2: Histidine [7]): 0.048 A450; A450 (Mouse Id2: Histidine [8]): 0.057 A450

B4: rabbit monoclonal anti-mouse/human Id3, clone #BCH-4/#42-1 (antibody, V domains shown)
VH: B1 VH
VL: B1 VL with T95S
notes: Rabbit IgG from a rabbit hybridoma; also called m/h Id3 MoAb 42-1
Which results are given for B4?
A450 [1]: 0.045 A450; A450 (Human Id1: Histidine): 0.047 A450; A450 (Mouse Id1: Histidine): 0.053 A450; A450 (Human Id2: Histidine [2]): 0.057 A450; A450 (Mouse Id3: Histidine [3]): 3.63 A450; A450 (Human Id3: Histidine): 3.75 A450; A450 [4]: 0.048 A450; A450 (Human Id2: Histidine [5]): 0.044 A450; A450 (Mouse Id3: Histidine [6]): 0.047 A450; A450 (Mouse Id2: Histidine [7]): 0.048 A450; A450 (Mouse Id2: Histidine [8]): 0.058 A450

B5: rabbit monoclonal anti-human Id3, clone #BCH-4/#3-3 (antibody, V domains shown)
VH: QSVEESGGRLVTPGTPLTLTCTVSGIDLSSYAMSWVRQAPGKGLEWIGVIFPSNNVYYASWAKGRFTISKTSTTVDLKITSPTTEDTATYFCASMGAFDSWGPGTLVTVSS
VL: QVLTQTPSPVSAAVGGTVTINCQASQSIYNDNDLAWFQQKPGQPPKLLIYDASTLTSGVPSRFKGSGSGTQFTLTISDLDCDDAATYYCAARYSGNIYGFGGGTEVVVK
notes: Rabbit IgG from a rabbit hybridoma; also called h Id3 MoAb 3-3
With B5 as the binder, how does the A450 [1] read?
The A450 was 0.045 A450.

What about the A450 (Human Id1: Histidine) of the same binder?
The A450 was 0.048 A450.

And the A450 (Mouse Id1: Histidine)?
Its A450 is 0.05 A450.

And the A450 (Human Id2: Histidine [2])?
The A450 was 0.047 A450.

What about the A450 [4] of the same binder?
Its A450 is 0.045 A450.

And the A450 (Human Id2: Histidine [5])?
The A450 was 0.043 A450.

What about the A450 (Mouse Id2: Histidine [7]) of the same binder?
Its A450 is 0.048 A450.

And the A450 (Mouse Id2: Histidine [8])?
The A450 was 0.05 A450.
